IntAct's records for PubMed 24316736

B1: Ubiquitin-conjugating enzyme E2 R1 (Homo sapiens), P49427 (parent)
chain: MARPLVPSSQKALLLELKGLQEEPVEGFRVTLVDEGDLYNWEVAIFGPPNTYYEGGYFKARLKFPIDYPYSPPAFRFLTKMWHPNIYETGDVCISILHPPVDDPQSGELPSERWNPTQNVRTILLSVISLLNEPNTFSPANVDASVMYRKWKESKGKDREYTDIIRKQVLGTKVDAERDGVKVPTTLAEYCVKTKAPAPDEGSDLFYDDYYEDGEVEEEADSCFGDDEDDSGTEES

Variants of: B1
Conditions: with rbx1_human RBX1, P62877
Sequence of rbx1_human RBX1, P62877 (P62877 whole entry, looked up): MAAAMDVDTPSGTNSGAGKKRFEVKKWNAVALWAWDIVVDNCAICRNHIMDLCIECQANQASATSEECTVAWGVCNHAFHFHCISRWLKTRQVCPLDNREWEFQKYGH

Row | effect of a mutation on the interaction | Variant
1 | disrupting interaction strength | Y70R
2 | disrupting interaction strength | T117E
